Source: patent US20100151496A1

Molecular target: TRAP-220-EA-Nuc fusion protein
Assay: cell-based or functional assay

Q: Which EC50 of the small-molecule inverse agonist XCT790 for loss of the β-galactosidase complementation signal (ERRα fusion with coactivator-EA fusion) in CHO cells does the source give for “ERRα (estrogen-related receptor α) fused to the small β-galactosidase fragment (NHR-PK fusion), expressed in CHO cells” here?
A: 300 nM

Q: And the S/B (signal/background) of β-galactosidase enzyme fragment complementation in CHO cells; loss of signal with the inverse agonist XCT790?
A: 3 fold
